Results from paper PMC9609871, “Binding and Kinetic Analysis of Human Protein Phosphatase PP2A Interactions with Caspase 9 Protein and the Interfering Peptide C9h” (Pharmaceutics, 2022).
Where two headings read alike, the source gives them in different places.

Molecular target: T1, PP2A (Homo sapiens, UniProt P67775)
T1 construct: purchased LSBio
Experiment: BLI: PP2A analyte binding to immobilized Caspase 9 (Protein A biosensor, anti-Caspase 9)
Experimental: Kinetic analysis was performed based on biolayer interferometry (BLI) by using a BLItz instrument (ForteBio, Bayonne, France) at room temperature. Prior to use, each biosensor was hydrated in sample diluent (SD: PBS1X, pH 7.0, 0.02% Tween 20, 0.1% BSA) for at least 10 min. Kinetic measurements of PP2A/Caspase 9 interactions were run with Protein A biosensors (Fortebio) and consisted of seven steps, all performed in reaction buffer, as follows: (i) initial baseline in 300 µL SD for 30 s was measured; (ii) 4 µL of mouse anti-Caspase 9 or rabbit anti-PP2A were immobilized on the sensor for 150 s at 133 nM; (iii) the immunosensor was washed with 300 µL SD for 120 s; (iv) 4 µL of purified ligand Caspase 9 at 566 nM (Origen) or PP2A at 694 nM (LSBio) were loaded on the immunosensor for 150 s; (v) the ligand-coated immunosensor was washed with 300 µL SD for 120 s; (vi) association of purified analytes diluted in SD at the mentioned concentrations was studied for 150 s in 4 µL; and (vii) dissociation step was then monitored in 300 µL SD for 120 s.
Experiments using empty immunosensors (no ligand loaded) were run as control. Sensorgrams were fit globally to a 1:1 binding model by BLItz Pro software, from which the association (kon) and dissociation (koff) rate constants and apparent affinities (KD) were calculated. […]

T1 sequence (P67775 whole entry): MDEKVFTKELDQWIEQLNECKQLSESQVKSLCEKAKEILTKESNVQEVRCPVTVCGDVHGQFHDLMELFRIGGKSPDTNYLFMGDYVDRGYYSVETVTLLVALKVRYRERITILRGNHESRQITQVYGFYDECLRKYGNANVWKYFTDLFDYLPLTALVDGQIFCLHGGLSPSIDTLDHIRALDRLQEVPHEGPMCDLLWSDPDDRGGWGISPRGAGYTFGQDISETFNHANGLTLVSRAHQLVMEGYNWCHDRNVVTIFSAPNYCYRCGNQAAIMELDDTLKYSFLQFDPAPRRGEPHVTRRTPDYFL

B1: Caspase 9: purified Caspase 9 protein (Origen), cysteine protease, initiator of intrinsic apoptosis (protein)
chain: MDEADRRLLRRCRLRLVEELQVDQLWDALLSRELFRPHMIEDIQRAGSGSRRDQARQLIIDLETRGSQALPLFISCLEDTGQDMLASFLRTNRQAAKLSKPTLENLTPVVLRPEIRKPEVLRPETPRPVDIGSGGFGDVGALESLRGNADLAYILSMEPCGHCLIINNVNFCRESGLRTRTGSNIDCEKLRRRFSSLHFMVEVKGDLTAKKMVLALLELAQQDHGALDCCVVVILSHGCQASHLQFPGAVYGTDGCPVSVEKIVNIFNGTSCPSLGGKPKLFFIQACGGEQKDHGFEVASTSPEDESPGSNPEPDATPFQEGLRTFDQLDAISSLPTPSDIFVSYSTFPGFVSWRDPKSGSWYVETLDDIFEQWAHSEDLQSLLLRVANAVSVKGIYKQMPGCFNFLRKKLFFKTS
modifications: Commercial purified Caspase 9 (Origen)
- Kd (discussion summary of PP2A/Caspase 9 BLI studies, in the range of, read-out: binding affinity of PP2A to Caspase 9): ~150 nM
- Kd (summary: close to, PP2A analyte on immobilized Caspase 9, read-out: affinity, both models): ~100 nM
